Test results published in patent US20250180582A1 (XIAMEN INNOBIOMAX BIOTECHNOLOGY, published 2025).
One block for each binder: values may come before it.

Assays:
Assay in all cases: indirect ELISA, cell supernatant, antigen coated 200 ng/mL
[1] = target: T1, pET-32a-GPR37-1-613 full-length antigen (human, UniProt O15354 27-613)
T1 construct: Expressed in Escherichia coli from pET-32a and purified; also called Antigen 1; not shown: fusion partner/tags encoded by the pET-32a vector
T1 sequence: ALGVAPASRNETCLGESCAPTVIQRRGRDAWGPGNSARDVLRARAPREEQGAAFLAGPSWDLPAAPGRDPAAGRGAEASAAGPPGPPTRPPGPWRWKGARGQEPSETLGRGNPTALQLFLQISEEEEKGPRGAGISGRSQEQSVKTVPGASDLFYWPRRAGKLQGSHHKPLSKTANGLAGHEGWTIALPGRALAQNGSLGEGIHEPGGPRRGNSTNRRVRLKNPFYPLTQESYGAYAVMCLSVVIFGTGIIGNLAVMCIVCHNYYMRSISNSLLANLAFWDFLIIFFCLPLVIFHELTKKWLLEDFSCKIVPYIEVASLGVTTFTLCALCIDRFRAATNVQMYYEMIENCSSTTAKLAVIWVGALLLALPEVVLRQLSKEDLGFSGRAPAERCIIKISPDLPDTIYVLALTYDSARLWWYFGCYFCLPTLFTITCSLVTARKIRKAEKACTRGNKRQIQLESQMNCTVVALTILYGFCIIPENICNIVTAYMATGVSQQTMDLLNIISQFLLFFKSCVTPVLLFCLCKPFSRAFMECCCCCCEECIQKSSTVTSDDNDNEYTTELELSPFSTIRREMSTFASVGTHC
Procedure: (§1) 3.6 Screening of hybridomas: Antigen 1 was used for primary screening, and two antigens that were also fused to pET-32a were used as accessory means for differential screening, in which both antigens were from Inbermax (Catalog No.: E11024, Catalog No.: E1212), and the self-made recombinant Antigen 2 and Antigen 3 were used at the same for identification. The screening method was an indirect ELISA, and its specific steps comprised: the plate was coated with the antigen at 200 ng/mL, 100 ul per well, added with 50 μL of cell supernatant, incubated at 37° C. for 30 minutes, washed 5 times with a plate washer, added with 100 ul of GAM-HRP prepared at 1:5K, incubated at 37° C. for 30 minutes, washed 5 times with a plate washer, added with a chromogenic solution at 100 ul/well, incubated at 37° C. for 15 minutes, added with a stop solution to terminated the reaction, and placed in a microplate reader to read signal values using dual wavelengths. Based on the experimental results, the cells in the corresponding positive wells were selected for the next step work.
(§2) 3.7 Cloning of hybridoma cells: Using the limiting dilution method, the cells were first diluted in gradient at certain concentrations, and then inoculated into each well of a 96-well cell culture plate, so that only one cell grew in the well as much as possible. The hybridoma monoclonal positive cell line was repeatedly cloned at least 3 times, and were confirmed as a stable clone after the final round was 100% positive. The positive standards were as described in 3.6.

[2] = target: T2, antigen fused to pET-32a from Inbermax, Catalog No.: E11024
T2 construct: Used for differential screening against the pET-32a fusion part
Procedure: as §1, §2

[3] = target: T3, antigen fused to pET-32a from Inbermax, Catalog No.: E1212
T3 construct: Used for differential screening against the pET-32a fusion part
Procedure: as §1, §2

[4] = target: T4, pCold-TF-GPR37-1-613 full-length antigen (human, UniProt O15354 27-613)
T4 construct: Target fragment of Antigen 1 moved into the pCold-TF expression vector; also called Antigen 2; not shown: TF fusion partner encoded by the pCold-TF vector
T4 sequence: T1 sequence
Procedure: as §1, §2

[5] = target: T5, pCold-TF-GPR37-1-265 extracellular segment protein (human, UniProt O15354 27-265)
T5 construct: also called Antigen 3; not shown: TF fusion partner encoded by the pCold-TF vector
T5 sequence: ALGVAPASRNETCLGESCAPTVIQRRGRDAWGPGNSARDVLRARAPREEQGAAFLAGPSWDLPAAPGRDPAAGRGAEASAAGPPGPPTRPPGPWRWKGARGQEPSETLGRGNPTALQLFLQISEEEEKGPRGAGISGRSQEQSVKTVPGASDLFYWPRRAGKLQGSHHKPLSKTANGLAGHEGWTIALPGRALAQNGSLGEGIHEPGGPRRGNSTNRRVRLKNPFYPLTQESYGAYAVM
Procedure: as §1, §2

ELISA signal [1]: 3.37 OD
ELISA signal [2]: 0.009 OD
ELISA signal [3]: 0.01 OD
ELISA signal [4]: 2.81 OD
ELISA signal [5]: 3.54 OD
B1: monoclonal antibody 6D2 (antibody, IgG2a, V domains shown)
VH: EVMLVESGGGLVKPGGSLKLSCAASGFIFSSQAMSWVRQIPEKRLEWVATISSGGSYTYYPDSVKGRFTISRDNAKNTLYLQMSSLTSEDTAMYYCARQRDFGRYYGYDPFFDFWGQGTTLTF
VL: EIVLTQSPTTMAASPGEKITITCSASSSISSNYLHWYQQKPGFSPKLLIYRTSNLPSGVPARFSGSGSGTSYSLTIGTMEAEDVATYYCQQGSSVPRITFGAGTKLE
notes: Mouse hybridoma antibody; also called mAb 6D2

ELISA signal [1]: 2.83 OD
ELISA signal [2]: 0.008 OD
ELISA signal [3]: 0.011 OD
ELISA signal [4]: 6.24 OD
ELISA signal [5]: 3.37 OD
B2: monoclonal antibody 5A2 (antibody, IgG2a, V domains shown)
VH: EVKLVESGGGLVQPGGSLRLSCATSGFIFSDYYMSWVRQPPGKALEWLGYIRNKAKRYTTEYNASVKGRFTISRDNSQNILYLQMNTLRAEDSATYYCARDTSDYDRFAYWGQGTLVTVSA
VL: DIVMTQTPLSLPVSLGDHASLSCKSSQSLVHRNGNTYLHWFLQKPGQSPKLLIYKVSNRFSGVPDRFSGSGSGTDFTLKISRVEAADLGVYFCSQSTLLPYTFGGGTKLEIK
notes: Mouse hybridoma antibody; also called mAb 5A2; 5A2-HRP
